Drawing on patent publication US6312907, this text covers percent inhibition of binding of 125I-labeled Dcn, percent inhibition of attachment of B. burgdorferi N40 to Dcn and activity compared with DbpA:549 for 7 substances.

A value given as a limit tells only on which side of the number the result lay.

The target of test [1] is B. burgdorferi N40 spirochetes (low-passage, intact cells). Kind of test: competition: spirochetes preincubated with unlabeled competitor, then 125I-labeled Dcn.
The target in test [2] is Bovine decorin (Dcn) purified from fetal skin (bovine) (UniProt P21793). The test is described as follows: competition: Dcn-coated wells preincubated with 200 ng protein, then B. burgdorferi N40; ELISA.
Test [3] has the same target. The test is described as follows: microtiter wells coated with increasing amounts of Dbps, biotin-labeled Dcn bound for 1 hour.

As to “bovine serum albumin (BSA) (from UniProt P02769)”, the percent inhibition of binding of 125I-labeled Dcn in test [1] was under 10%. In test [1], thyroglobulin type II (Sigma) showed a percent inhibition of binding of 125I-labeled Dcn of under 10%. In turn, “DbpA:549 (recombinant polyhistidine fusion of DbpA of B. burgdorferi strain 297 lacking nine amino terminal residues)” returned a percent inhibition of attachment of B. burgdorferi N40 to Dcn in test [2] of 93%. In turn, fetuin type IV (Sigma) came in with a percent inhibition of binding of 125I-labeled Dcn in test [1] of under 10%.

In turn, “DbpA:C25A (site-directed mutant of DbpA:549)” showed an activity compared with DbpA:549 in test [3] of under 80%. For the same substance, the percent inhibition of attachment of B. burgdorferi N40 to Dcn in test [2] came to 93%. On to aggrecan isolated from bovine cartilage, for which the percent inhibition of binding of 125I-labeled Dcn in test [1] is under 10%. fibrinogen (KabiVitrium): in test [1], the percent inhibition of binding of 125I-labeled Dcn is under 10%.
